The values that follow come from PMC5216127 (2017).

The Kd is the constant that tells how readily two partners part at equilibrium. Read a low Kd as a tighter complex.

For experiment [1], the target named is T1, GST-TCF4 (8–411, deletion 66–325) (human, biotin (only where coated on the streptavidin biosensor, Figure 5e)).
T1 chain: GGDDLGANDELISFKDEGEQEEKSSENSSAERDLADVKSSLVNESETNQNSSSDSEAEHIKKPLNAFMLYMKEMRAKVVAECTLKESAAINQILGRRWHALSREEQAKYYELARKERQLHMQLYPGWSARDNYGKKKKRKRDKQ
Kind of experiment: BLI. In general terms: In BLI a coated tip is dipped into the sample, and binding shifts an interference pattern.

The target in experiment [2] is T2, GST-tagged TCF4 (amino acids 326–411) (human).
T2 chain: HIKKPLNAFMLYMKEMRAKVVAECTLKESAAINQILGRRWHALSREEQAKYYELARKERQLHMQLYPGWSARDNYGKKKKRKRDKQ
Kind of experiment: BLI.

B1: TEAD4 (TEA, 38–105) (domain or fragment)
chain: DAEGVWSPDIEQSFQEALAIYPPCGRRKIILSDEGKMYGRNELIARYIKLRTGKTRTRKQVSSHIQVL
For the molecule B1, the values for the Kd in experiment [1] and in experiment [2] were 132 nM and 288 nM, respectively.
